Consider 19 sequences from the DeepSol protein solubility set.

The series in a line: soluble on expression in E. coli; label from the status in PepcDB or PDB records.
On to “MLWLALGPFPAMENQVLVIRIKIPNSGAVDWTVHSGPQLLFRDVLDVIGQVLPEATTTAFEYEDEDGDRITVRSDEEMKAMLSYYYSTVMEQQVNGQLIEPLQIFPRACKPPGERNIHGLKVNTRAGPSQHSSPAVSDSLPSNSLKKSSAELKKILANGQMNEQDIRYRDTLGHGNGGTVYKAYHVPSGKILAVKVILLDITLELQKQIMSELEILYKCDSSYIIGFYGAFFVENRISICTEFMDGGSLDVYRKMPEHVLGRIAVAVVKGLTYLWSLKILHRDVKPSNMLVNTRGQVKLCDFGVSTQLVNSIAKTYVGTNAYMAPERISGEQYGIHSDVWSLGISFMELALGRFPYPQIQKNQGSLMPLQLLQCIVDEDSPVLPVGEFSEPFVHFITQCMRKQPKERPAPEELMGHPFIVQFNDGNAAVVSMWVCRALEERRSQQGPP”, for which the “soluble on expression in E. coli” value was “soluble”. Regarding “MGHHHHHHSHMKFRAKIVDGACLNHFTRISNMIAKLAKTCTLRISPDKLNFILCDKLANGGVSMWCELEQENFFNEFQMEGVSAENNEIYLELTSENLSRALKTAQNARALKIKLTNKHFPCLTVSVELLSMSSSSRIVTHDIPIKVIPRKLWKDLQEPVVP”, the “soluble on expression in E. coli” value is on record as “not soluble”. As for “MAKVSLEKDRIKFLLVEGVHQSAVDNLRAAGYSNIEYHKGALDAESLKASIRDAHFIGIRSRTHLSEDVFAAAEKLVAVGCFCIGTNQVDLKAATKRGVPVFNAPFSNTRSVAEMVLGELLLMFRGIPSANAKAHRGEWNKLAVGSFEARGKKLGIIGYGHIGTQLGILAESIGMKVFFYDIENKLSLGNAQQVRQLSDLLNMSDVVSLHVPENHTTKNMIGAEQLAQMKPGALLINASRGTVVDIPALCDALSSNHLSGAAIDVFPEEPATNKDPFNSPLCEFDNVLLTPHIGGSTQEAQENIGDEVAGKLAKYSDNGSTLSAVNFPEVSLPAHGDNTRRLLHIHENRPGILTSINTIFAEQNVNIAAQYLQTSADIGYVVIDVETDDADNAEKALQAMKAIPGTIRARLLY”, the entry is “not soluble”. With “GSHMKITYPLPPNLPEQLPLLTNCQLEDEAILENHLYQQIDLPNQEVRNLVFRDAVFDHLSLANGQFASFDCSNVRFEACDFSNVEWLSGSFHRVTFLRCNLTGTNFADSYLKDCLFEDCKADYASFRFANFNLVHFNQTRLVESEFFEVTWKKLLLEACDLTESNWLNTSLKGLDFSQNTFERLTFSPNYLSGLKVTPEQAIYLASALGLVIT”, the “soluble on expression in E. coli” value was “soluble”. For the sequence “MLMLEREKLARLIKKRSLKVADEPVFKLSSGKLSRYYVDLKQITFDPEGDYLIGKAMYELVKEFNPDACGGLTLGADPIAYAIAFVSLMDSNPIKPFVVRKEPKGHGMKRQIEGLLNPGERVAVLEDVVTTGSSALKAVKACREYGLEVIGVFAVVDREEGGRENIEKEGIPLYSLFKLSELL”, the “soluble on expression in E. coli” value was “soluble”. For “MGSDKIHHHHHHMGMILNGYLEVINHLQQLPLALILIFNLKIMKQIIYVFLLTVLSSCDSYLSKVPSPSTSAPINNVEQLVAIYDNATAFINETNPFACYSNDDADLTAELYKADPSAFAISSTVFYNILHTAGIASQASDGLWNGEYSNIFKANTIINNVDKVTGDESEKIKLKCNAHFLRAYSYFVLAQYYCLPYCEANKNALGLPKRLNTDFEESIARVSLDEIYQLILDDLEIAAVTPDKSVNPNFPWRICQATVNALLSRVYLTMGNYKEAQATAEKALEGAPELLDFNELGYAPVESYPEMEGLPAQDVYNCETHKWTTIKYLYWKEFLFPRFTYARSQWIIPSDDLVSLYDQQNDRRFKLFFVEHGNRRMGVPYEAYRYNQFYDGRYIISGLTTAEMLLNKAEAQIRQGMWQEGLKTLDVLREKRYEAGTYISLSAGNQSEALSIVLAERRREMPFSMRIPDIKRYGVNEILEDDVTVVKNFFEISMSEVFIDKPKTYTIPSNSLLWAMPINDVEIGSSNGAIQQNRYE” the value was “not soluble”. With “MAVRPVLAVGSYLPHAPWPWGVIDQAARVLLPASTTVRAAVSLPNASAQLVRASGVLPADGTRRAVLYLHGGAFLTCGANSHGRLVELLSKFADSPVLVVDYRLIPKHSIGMALDDCHDGYRWLRLLGYEPEQIVLAGDSAGGYLALALAQRLQEVGEEPAALVAISPLLQLAKEHKQAHPNIKTDAMFPARAFDALDALVASAAARNQVDGEPEELYEPLEHITPGLPRTLIHVSGSEVLLHDAQLAAAKLAAAGVPAEVRVWPGQVHDFQVAASMLPEAIRSLRQIGEYIREATG”, the “soluble on expression in E. coli” value was “soluble”. Turning to “MLPEEHLMLRQAVILVGGLGTRLGERTKARPKPMLEIGGRPFLDTLIDELDRYQIFDEILLLAGHKAEIVETHYAGATRGRAKIVVSRETEPLGTGGALVHAAPLLDQHFLLLNGDSLFDFNLLDLIARAQGGRVHMALRDGVVGDRYGRVVLDGDIVRDFIAPGAGATGPVNAGIYVVDKSIIAEIAKLPASLEQDVFPGLVRSGELRGTAYRGYFIDIGIPDDFARADRELREKLQRPAVFFDRDGVLNHDSGYTFETHKLEWIEGAREAVKAVNDAGYFAFVITNQSGVARGYYEEHHVLALHRWMADQMALIGAHIDAFEYCPDHPDGTVARYCRISDRRKPAPGMITDLAQRFSVDMTRSMVVGDKDSDMAAAQAAGLAGHMFEGGNLEAFVKQRLKPADKGLEHHHHHH”, the “soluble on expression in E. coli” value is given as “not soluble”. As to “MKVVAVGGGTGLSTLLKGLKNIDSFEITAVVSVTDEGGSSGKLRKELNVPPPGDVRNNIVALAKDEDLLAKLMSYRFSEGSFKGHSLGNLIIAALTKIEGSFSEAIRILERVLAIKGRVLPVSEDHARLVARFEDGEEVIGETNIVRKGGKIVEVRLDRPIDALPEVLEAIERADIIIFGPGSLYTSIITNVLVNGVKDAIKKSKAKKIYVCNLMTQPGETTGYRVSDHVKELERYLEQSVDFVLVNTRKPSEEVLERYRKEGSDFVEIDAENIQNTILAEPFLVEIVDPSDGQRKIRHDSVKLADVIERISRW”, the “soluble on expression in E. coli” value is listed as “soluble”. On to “MGMKFLNKKGWHTGSLRNIETVWKAEQKQEAEQKKLEELRLQILQERERSEFRALQEQAGLIPRQERLEFLYDSGLAVGKGSASGSGVSFQKEEQPLAKSEAGSSASEKPDQSAPGALFEEKAQSANDSWRKLHSDPLLLIRQREQEALAKIKNNPVKMALIRKSVEEKGKGKDGDTKEHKKKHKRKSGKHQKQSSSRQRSDSEEDSGEENNGRKSHHQKTSGTHDRHYERPRSDLEDESKGRESRDRHYEKRRSELDDGHKRRERHDTHYERRRSEMDDESKRRESRDNHYERRRSDLDDESKRRESHDKHFERQRSDLDDEYKRRESQDKRRRSDIDDEPKRRDARPNEKYRNRSPKGGVERENLKSYGQEDKKRKAEDLDSGKPNEYQNRRRKGGSKLSEEERAARLKQMQMDAEVHEEQRWTRLKKADETDAVEADKNKVSTGKSFLDDANKSVYGVEKGGSSTIEESVRRRSYYSQRGTAAEGNAFRR”, for which the “soluble on expression in E. coli” value is “not soluble”. As for “AAHQLTIVHLEARDIDRPNPQLEIAPKEGTPIEGVLYQLYQLKSTEDGDLLAHWNSLTITELKKQAQQVFEATTNQQGKATFNQLPDGIYYGLAVKAGEKNRNVSAFLVDLSEDKVIYPKIIWSTGELDLLKVGVDGDTKKPLAGVVFELYEKNGRTPIRVKNGVHSQDIDAAKHLETDSSGHIRISGLIHGDYVLKEIETQSGYQIGQAETAVTIEKSKTVTVTIENKKVPTPKVPSR”, the “soluble on expression in E. coli” value was “soluble”.

Regarding “MGSDKIHHHHHHVKSELIWSKALETSRKAIDCAAVIPLETYKYKSIKKCFDFELRFLKRTFPKNLIDYGPKANPFIPWDRRLEVQAVNDNYTIILNKYPVQLGHLLLISNYWKPQNSWLSIDDFEAIAKVDNDTTGLWFFNSSKDAGASQPHRHFQLLRRDKYENICPRYEWFCSLLNNSEGFNSDIKQCISIKPRKSKLDIDAHDLFNSYKSMIIEMDLGNINNDDKPLKPYNLLITEKWISLIVRSKDRAHGFGINALGFAGYFLGTRRSDIDMLIKFGPESILKDVI”, the “soluble on expression in E. coli” value was “not soluble”.

As to “MSRGTQACINAAHTVSGIIGDLDTTIMFATAGTLHSDGDGSFADHREHILQTAKALVEDTKVLVTGAAGTQDQLANAAQNAVSTITQLAEAVKRGACSLGSTQPDSQVMVINAVKDVASALGDLINCTKLASGKSINDPSMQDLKESARVMVLNVSSLLKTVKAVEDEHTRGTRAMEATVEAISQEIRALEHHHHHHHH”, the “soluble on expression in E. coli” value is given as “soluble”. “SYELTQPPSVSVAPGKTARITCGGNNIGSKSVHWYQQKPGQAPVLVVYDDSDRPSGIPERFSGSNSGNTATLTISRVEAGDEADYYCQVWDSSSDYVFGTGTKVTVLGQPKANPTVTLFPPSSEEFQANKATLVCLISDFYPGAVTVAWKADGSPVKAGVETTKPSKQSNNKYAASSYLSLTPEQWKSHRSYSCQVTHEGSTVEKTVAPTECS”: the “soluble on expression in E. coli” value is “soluble”. For “MNKCFLKIAIVAGEESGDLLGADLISCLSQQTGCKIDLIGVGGRHLKALGLKSFFDFQDIALIGLGTVLKKLPLLLIHIHNLSKFIAKEQPDCLIIIDSPDFTHRVAKKVHVLAPSIPIIKYIAPTVWAWRPERAKAMRKFVDHVLAVFPFEKKIMQDLGGPPTTYVGHRLLTYPPLLTIQSKKRHQSEKKHVFAKQTSSPTLVILPGSRNLEIRYLMPIFREAVEILIQRIPHLHIILPTLPHFVDEIRAFVQSWKNKVEILVDEDAKWHAFSKADVALAALGTVSLELALAKIPMVLCYKLDRFSKLFIFPKIMLWSAALPNIISDKPIVPEYFNEFLRPGMLARQIEELLYNPLLRQAQLDVFEMVEQKMKTEVPSGVIAAQTIVTLLKKRSGSLKFS”, the “soluble on expression in E. coli” value is on record as “not soluble”.

For the sequence “MSLKYKLLVLDLDGTLTNAKKEITLHNREALIRVQQQGVKLILASGRPTFGIVPLADELRMKEFGGFILSYNGGEIIDWSTGEIVYANVLPDEVIPRLYECATRNQLPILTYDRQYIITEYPDDVYVRKEAFLNKMQIYPSTDFLKDIRLPLPKCLIVGEPHRLIPIEAELSVELQGQLSVYRSEPFFLELVPQGIDKAQSLSVLLNKLNMNREEMVAVGDGYNDLSMIQFAGLGVAMGNAQEPVKKAADYITLSNEEDGVAAVVNKFFTKAPEKGEGHHHHHH”, the “soluble on expression in E. coli” value is “soluble”. “MAEKSFKYIILGGGVSAGYAAKEFANQGVQPGELAVISKEAVAPYERPALSKGYLFPEGAARLPGFHCCVGSGGEKLLPESYKQKGIELILSTEIVKADLSAKSLVSATGDVFKYQTLIIATGSTVLRLTDFGVKGADSKNILYLREIDDADKLVEAIKAKKGGKAVVVGGGYIGLELSAVLRINNLDVTMVFPEPWCMPRLFTADIAAFYETYYTNKGVKIIKGTVASGFTAQPNGEVKEVQLKDGRTLEADIVIVGVGAKPLTSLFKGQVEEDKGGIKTDAFFKTSVPDVYAVGDVATFPLKMYGDVRRVEHVDHSRKSAEQAVKAIKAAEGGAAVEEYDYLPFFYSRSFDLSWQFYGDNVGDSVLFGDSNPSNPKPRFGAYWVQGGKVVGAFMEGGSGDENKALAKVAKARPSAESLDELVKQGISFAAKI”: the “soluble on expression in E. coli” value is “soluble”. As for “MGSDKIHHHHHHMKPTLFVLAAGMGSRYGSLKQLDGIGPGGDTIMDYSVYDAIRAGFGRLVFVIRHSFEKEFREKILTKYEGRIPVELVFQELDRLPEGFSCPEGREKPWGTNHAVLMGRDAIREPFAVINADDFYGRNGFEVLARKLMTLEGKQGEYCMVGYRVGNTLSESGGVSRGVCQVDEKHLLTGVVERTGIERTDGTISFRDETGKICTLAEDAPVSMNMWGFTPDYFDYSEELFINFLNAHGQEPKSEFFIPFVVNDLIRSGRASVEVLDTTARWFGVTYSDDRPGVVAKLRELTEAGEYPTKLF”, the “soluble on expression in E. coli” value is “not soluble”. On to “MVHYKLTYFLSRGLGDVSRQLFHLADVDFEDERLEKPHFLEKKETYPFKQVPVLSVDGFQIPQSMAIARYLAKKFGFAGKTAEESAMVDAFVDQFKDFYSEIRDYYYTMLGLGLTDLDGDEQKDKVLIPARDKFLPLLTRYLEKSKSGFLVDGGLTFADLIILDNMTSLLNWWPEYANDYPVILAWRDKVMNYPRLKEYIEKRPVTMY”, for which the “soluble on expression in E. coli” value is on record as “not soluble”.
